Results published in article PMC4425550 (Nature medicine, 2015).
One block for each molecule: values may come before it. Where no end group is shown, it is not given here. The star is where a group is joined. Biotin = O=C1N[C@H]2[C@H](CS[C@H]2CCCCC(=O)*)N1

Tests used:
SPHK1/2 = assay: T cell transmigration with SPHK1/2 inhibitor; assay type: cell-based, human; conditions: 5 μM on endothelial cells, 30 min 37°C, washed, n=3
[1] = tested on: S1PR1 on memory T cells (CD3+CD45RO+); assay: S1PR1 surface expression on memory T cells on ICAM-1; assay type: cell-based, human
αLβ2 (LFA-1) = assay: LFA-1 activation epitope; assay type: cell-based, human; conditions: S1P 10 µM after CXCL10 80 ng/ml, n=4
[2] = tested on: S1P receptor on T cells; stimulated endothelial cells; assay: T cell transmigration with exogenous S1P, B cell depleted PBL; assay type: cell-based, human
SPHK1 = assay: T cell transmigration with SPHK1 specific inhibitor; assay type: cell-based, human; conditions: 5 μM on endothelial cells, 30 min 37°C, washed, n=3
S1P receptor = assay: T cell transmigration with S1P receptor antagonist; assay type: cell-based, human; conditions: W146 10 μM, 30 min, washed; n=3–7
[3] = tested on: TNF-α&IFN-γ treated HUVEC; assay: PBL trans-endothelial migration, static, HUVEC; assay type: cell-based, human
B cells = conditions: T1D and rheumatoid arthritis; cited from earlier work
[4] = tested on: TNF-α&IFN-γ stimulated HUVEC; assay: Gene expression of adhesion molecules and chemokines in HUVEC, real-time PCR; assay type: cell-based, human; conditions: TNF-α and IFN-γ stimulated endothelial cells
[5] = tested on: TNF-α&IFN-γ stimulated endothelial cells; assay: PBL adhesion; assay type: cell-based, human; conditions: adiponectin or PEPITEM
[6] = tested on: lymphocytes from individuals with T1D; endothelial cells; assay: Ex vivo T cell transmigration, individuals with type-1-diabetes; conditions: adiponectin 15 μg/ml or PEPITEM 10 ng/ml, n=9–22
[7] = tested on: lymphocytes from individuals with rheumatoid arthritis; endothelial cells; assay: Ex vivo T cell transmigration, individuals with rheumatoid arthritis; assay type: cell-based, human; conditions: adiponectin 15 μg/ml or PEPITEM 10 ng/ml, n=7–8
[8] = tested on: α4β1, αLβ2, CXCR3, DP-2 on PBL; assay: Expression/function of integrins, CXCR3 and DP-2 on PBL, flow cytometry; assay type: cell-based, human; conditions: adiponectin 15 μg/ml, n=3
[9] = tested on: TNF-α&IFN-γ treated HUVEC; assay: PBL trans-endothelial migration under flow; conditions: adiponectin pre-treated PBL, n=6
[10] = tested on: endothelial cells (TNF-α and IFN-γ stimulated); assay type: cell-based, human
HDMEC = assay: PBL transmigration across HDMEC, static; assay type: cell-based, human; conditions: TNF-α&IFN-γ stimulated HDMEC, n=3–4
recombinant CDH15-Fc = molecular target: T1, recombinant CDH15-Fc (UniProt P55291 61-606); assay: SPR
T1 sequence (looked up): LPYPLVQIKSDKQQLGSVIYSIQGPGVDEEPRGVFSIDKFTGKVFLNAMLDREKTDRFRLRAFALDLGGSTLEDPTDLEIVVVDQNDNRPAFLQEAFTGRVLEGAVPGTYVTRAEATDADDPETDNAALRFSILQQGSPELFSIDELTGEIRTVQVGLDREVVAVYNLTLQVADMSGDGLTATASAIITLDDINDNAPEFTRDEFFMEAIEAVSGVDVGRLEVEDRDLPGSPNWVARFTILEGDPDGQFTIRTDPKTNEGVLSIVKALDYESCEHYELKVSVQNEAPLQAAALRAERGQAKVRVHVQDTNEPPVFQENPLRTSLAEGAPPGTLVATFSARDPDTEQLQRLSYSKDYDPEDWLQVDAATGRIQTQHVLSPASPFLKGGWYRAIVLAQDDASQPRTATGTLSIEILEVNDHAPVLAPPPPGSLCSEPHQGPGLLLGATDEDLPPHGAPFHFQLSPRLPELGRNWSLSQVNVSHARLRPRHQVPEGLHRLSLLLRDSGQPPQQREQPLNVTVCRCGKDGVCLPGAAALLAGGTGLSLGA

Molecule: CCCCCCCCCCCCC/C=C/[C@@H](O)[C@H](CO)N(C)C [N,N-Dimethylsphingosine]
- ability of PEPITEM to inhibit T cell migration, SPHK1/2 inhibitor (SPHK1/2): abolished the ability of PEPITEM to inhibit T cell migration

Molecule: CCCCCCCCCCCCC/C=C/[C@@H](O)[C@@H](N)COP(=O)(O)O [S1P, Sphingosine-1-phosphate]
- surface S1PR1 in the presence of exogenous S1P ([1]; CXCL10 80 ng/ml + S1P 10 μM, n=4): high expression was maintained
- affinity of LFA-1, binding to ICAM-1 (αLβ2 (LFA-1)): down-regulates the affinity
- T cell migration on adding exogenous S1P ([2]; S1P 0.0001 to 100 μM, 30 min, purified T cells / B cell depleted PBL, n=3–6): mimicked dose-dependently
- T cell transmigration at total circulating S1P concentration ([2]; S1P ≈0.2 μM): inhibited T cell transmigration efficiently

Molecule: CCCCCCCCCCCCCC#CC(=O)[C@@H]1COC(C)(C)N1C(=O)OC(C)(C)C [SPHK1 inhibitor, 2,2-dimethyl-4S-(1-oxo-2-hexadecyn-1-yl)-1,1-dimethylester-3-oxazolidinecarboxylic acid]
- ability of PEPITEM to inhibit T cell migration, SPHK1 inhibitor (SPHK1): abolished the ability of PEPITEM to inhibit T cell migration

Molecule: CCCCCCc1cccc(NC(=O)[C@H](N)CCP(=O)(O)O)c1 [W146]
- T cell migration in the presence of adiponectin and PEPITEM with S1P receptor antagonist (S1P receptor): released T cells from the inhibitory effects of both adiponectin and PEPITEM

Molecule: CXCL10: chemokine
- surface S1PR1 on memory T cells on ICAM-1 ([1]; CXCL10 80 ng/ml, n=6): rapid up-regulation of surface S1PR1

Molecule: PEPITEM with a biotin conjugate on the N-terminus: PEPITEM with a biotin conjugate on the N-terminus (Biotin-SVTEQGAELSNEER)
- efficacy in functional migration assay [3]: full efficacy

Molecule: rituximab: monoclonal antibody, B cell depletion
- clinical effect of B cell depletion (B cells): beneficial effects

B1: adiponectin: circulating adipokine (protein, UniProt Q15848 19-244, looked up)
Adiponectin: ETTTQGPGVLLPLPKGACTGWMAGIPGHPGHNGAPGRDGRDGTPGEKGEKGDPGLIGPKGDIGETGVPGAEGPRGFPGIQGRKGEPGEGAYVYRSAFSVGLETYVTIPNMPIRFTKIFYNQQNHYDGSTGKFHCNIPGLYYFAYHITVYMKDVKVSLFKKDKAMLFTYDQYQENNVDQASGSVLLHLEVGDQVWLQVYGEGERNGLYADNDNDSTFTGFLLYHDTN
- gene expression of adhesion molecules and chemokines [4]: did not modulate
- PBL trans-endothelial migration ([3]; TNF-α and IFN-γ stimulated HUVEC, static): dose-dependently inhibited
- EC50 for inhibition of PBL trans-endothelial migration (mass concentration) ([3]; adiponectin, PBL pre-treated 1 h and washed, TNF-α and IFN-γ stimulated, static): 0.94 µg/mL
- firm adhesion of PBL (surface adherent cells) [5]: more cells were firmly adherent to the apical surface of the endothelium
- T cell migration, individuals with T1D [6]: no longer an inhibition of T cell migration
- T cell migration, individuals with rheumatoid arthritis [7]: no longer an inhibition of T cell migration
- expression and/or function of integrins (α4β1, αLβ2), CXCR3, DP-2 on PBL [8]: did not alter
- PBL transmigration under flow [9]: effects of adiponectin on PBL migration were seen
- T cell migration with supernatants from adiponectin stimulated B cells ([10]; B cells 100,000, adiponectin 15 μg/ml 1 h): as effective as addition of B cells themselves
- T cell migration after depleting B cells from PBL ([10]; adiponectin treated, n=3–7): T cells were released from the inhibitory effects of adiponectin
- T cell migration after adding back purified B cells ([10]; adiponectin, n=3–7): could reconstitute the adiponectin-dependent inhibition of T cell migration
- PBL transmigration on HDMEC (HDMEC): evident

- Kd (recombinant CDH15-Fc): 109 µM
Molecule: Biotin-SVTEQGAELSNEER [N-terminus biotinylated PEPITEM (PEPtide Inhibitor of Trans-Endothelial Migration)]
